Here are results for nine molecules from patent US6218168A, “Process for preparing O-acetylserine, L-cysteine and L-cysteine-related products” (Consortium fur elektrochemische Inudstrie GmbH, priority 1995, dated 2001).

The assay deals with serine acetyltransferase. The assay can be described thus: Serine acetyltransferase enzyme activity test with and without L-cysteine (inhibitor constant Ki, specific activity). It is filed as biochemical, E. coli. As to conditions: for Ki: inhibitor L-cysteine. The text has this:
Any method which enables the activity of the serine acetyltransferase to be determined in the presence of cysteine can be used for determining the cysteine sensitivity of this enzyme. For example, the serine acetyltransferase activity can be determined using the method described by Kredich and Tomkins, J. Biol. Chem. 241: 4955-4965 (1966). In this test, the enzyme test mixture contains the substrate, L-serine, and the cofactor, acetyl-coenzyme A. The reaction is started by adding enzyme and monitored, in a spectro photometer, by observing the decrease in absorption at 232 nm which is elicited by the cleavage of the thioester bond in the acetyl-coenzyme A.
The above-described enzyme test is suitable for determining the cysteine sensitivity of any serine acetyltransferase enzyme, including the enzymes which have a modified carboxyl terminus. Inhibition of the serine acetyltransferase activity is tested in the presence of differing concentrations of L-cysteine in the reaction mixture. The catalytic activity of the different serine acetyltransferase enzymes is determined in the presence and absence of L-cysteine, and the inhibitor constant, Ki, is ascertained from this (Kredich and Tomkins, J. Biol. Chem., 241, 4955-4965 (1966)).
In order to investigate the biochemical basis of the cysteine secretion of the revertants, the activity of the serine acetyltransferase was determined in vitro, and the ability of cysteine to inhibit the enzyme was measured. For the determination, use was made of S30 extracts (cell homogenates centrifuged at 30,000 g and 4° C. for 20 minutes) of the selected revertants, the starting strains and the comparison strain, E. coli W3110 (ATTC 27325).
The biochemical parameters such as enzyme activity and inhibitor constant, Ki, were determined in an analogous manner to that described in Example 1.
The plasmids resulting from this cloning were designated pACYC184/cysE-Del in accordance with the extent of their deletion (cf. FIG. 9 for the plasmid map). Determination of the enzymic activity and the inhibitor constant, Ki, and also the cross-feeding test, were carried out in analogy with the description in Example 1. DNA sequence analysis was used to confirm that the deletions had been correctly introduced.
Determination of the enzymic activity and of the inhibitor constant Ki, and also the cross-feeding test, were carried out in analogy with the description in Example 1.

[1] abbreviates: Table 1b, carboxyterminal deletions.
Where [2] appears, read: Table 6, carboxyterminal deletions.
[3] abbreviates: Table 1a, 1 mM L-serine, 0.1 mM acetyl-CoA.
Setting [4] is: Table 1a, serine acetyltransferase activity.
The mark [5] stands for this setting: Table 2, alleles from chemical mutagenesis.

B1: cysE-Del250: carboxyterminal deletion of 23 amino acids, terminal Asp250 (protein, UniProt P0A9D4 1-250, looked up, fragment)
chain: MSCEELEIVWNNIKAEARTLADCEPMLASFYHATLLKHENLGSALSYMLANKLSSPIMPAIAIREVVEEAYAADPEMIASAACDIQAVRTRDPAVDKYSTPLLYLKGFHALQAYRIGHWLWNQGRRALAIFLQNQVSVTFQVDIHPAAKIGRGIMLDHATGIVVGETAVIENDVSILQSVTLGGTGKSGGDRHPKIREGVMIGAGAKILGNIEVGRGAKIGAGSVVLQPVPPHTTAAGVPARIVGKPDSD
For orientation: Ki means a dissociation constant, usually derived from enzyme kinetics or from competition with a known ligand. Read a low Ki as higher affinity. As to B1, under setting [1], the spec. act. worked out at 0.405 μmol/min x mg and the Ki turned out to be 20 µM. Under setting [2], this molecule had an inhibition constant (Ki) of 20 µM.

B2: cysE-Del249: carboxyterminal deletion of 24 amino acids, terminal Ser249 (protein, UniProt P0A9D4 1-249, looked up, fragment)
chain: MSCEELEIVWNNIKAEARTLADCEPMLASFYHATLLKHENLGSALSYMLANKLSSPIMPAIAIREVVEEAYAADPEMIASAACDIQAVRTRDPAVDKYSTPLLYLKGFHALQAYRIGHWLWNQGRRALAIFLQNQVSVTFQVDIHPAAKIGRGIMLDHATGIVVGETAVIENDVSILQSVTLGGTGKSGGDRHPKIREGVMIGAGAKILGNIEVGRGAKIGAGSVVLQPVPPHTTAAGVPARIVGKPDS
Under setting [1], B2 registered a spec. act. of 0.420 μmol/min x mg and a Ki of 15 µM. Under setting [2], the affinity corresponds to a Ki of 15 µM.

B3: cysE-Del256: carboxyterminal deletion of 17 amino acids, terminal Met256 (protein, UniProt P0A9D4 1-256, looked up, fragment)
chain: MSCEELEIVWNNIKAEARTLADCEPMLASFYHATLLKHENLGSALSYMLANKLSSPIMPAIAIREVVEEAYAADPEMIASAACDIQAVRTRDPAVDKYSTPLLYLKGFHALQAYRIGHWLWNQGRRALAIFLQNQVSVTFQVDIHPAAKIGRGIMLDHATGIVVGETAVIENDVSILQSVTLGGTGKSGGDRHPKIREGVMIGAGAKILGNIEVGRGAKIGAGSVVLQPVPPHTTAAGVPARIVGKPDSDKPSMDM
Under setting [1], B3 gave a spec. act. of 0.366 μmol/min x mg. For the same molecule, the Ki by setting is: under setting [1], 12.5 µM; under setting [2], 12.5 µM.

B4: cysE-Del257: carboxyterminal deletion of 16 amino acids, terminal Asp257 (protein, UniProt P0A9D4 1-257, looked up, fragment)
chain: MSCEELEIVWNNIKAEARTLADCEPMLASFYHATLLKHENLGSALSYMLANKLSSPIMPAIAIREVVEEAYAADPEMIASAACDIQAVRTRDPAVDKYSTPLLYLKGFHALQAYRIGHWLWNQGRRALAIFLQNQVSVTFQVDIHPAAKIGRGIMLDHATGIVVGETAVIENDVSILQSVTLGGTGKSGGDRHPKIREGVMIGAGAKILGNIEVGRGAKIGAGSVVLQPVPPHTTAAGVPARIVGKPDSDKPSMDMD
Under setting [1], B4 showed a spec. act. of 0.394 μmol/min x mg and a Ki of 7.5 µM. The molecule further had a Ki under setting [2] of 7.5 µM.

B5: cysEII: feedback-resistant serine acetyltransferase allele, Gly238->Ser238 (protein, UniProt P0A9D4 1-273, looked up, variant G238S)
Serine acetyltransferase: MSCEELEIVWNNIKAEARTLADCEPMLASFYHATLLKHENLGSALSYMLANKLSSPIMPAIAIREVVEEAYAADPEMIASAACDIQAVRTRDPAVDKYSTPLLYLKGFHALQAYRIGHWLWNQGRRALAIFLQNQVSVTFQVDIHPAAKIGRGIMLDHATGIVVGETAVIENDVSILQSVTLGGTGKSGGDRHPKIREGVMIGAGAKILGNIEVGRGAKIGAGSVVLQPVPPHTTAASVPARIVGKPDSDKPSMDMDQHFNGINHTFEYGDGI
Consider B5, for which the Ki is, setting by setting: under setting [3], 10 µM; under setting [5], 10 µM. For the same molecule, under setting [4], the spec. act. was determined as 0.068 µmol/min/mg.

B6: cysEIII: feedback-resistant serine acetyltransferase allele, Gly165->Asp165 (protein, UniProt P0A9D4 1-273, looked up, variant G165D)
Serine acetyltransferase: MSCEELEIVWNNIKAEARTLADCEPMLASFYHATLLKHENLGSALSYMLANKLSSPIMPAIAIREVVEEAYAADPEMIASAACDIQAVRTRDPAVDKYSTPLLYLKGFHALQAYRIGHWLWNQGRRALAIFLQNQVSVTFQVDIHPAAKIGRGIMLDHATGIVVDETAVIENDVSILQSVTLGGTGKSGGDRHPKIREGVMIGAGAKILGNIEVGRGAKIGAGSVVLQPVPPHTTAAGVPARIVGKPDSDKPSMDMDQHFNGINHTFEYGDGI
For B6, the Ki runs as follows: under setting [3], 10 µM; under setting [5], 10 µM. This molecule came in with a spec. act. under setting [4] of 0.030 µmol/min/mg.

B7: cysE-Del259: carboxyterminal deletion of 14 amino acids, terminal His259 (protein, UniProt P0A9D4 1-259, looked up, fragment)
chain: MSCEELEIVWNNIKAEARTLADCEPMLASFYHATLLKHENLGSALSYMLANKLSSPIMPAIAIREVVEEAYAADPEMIASAACDIQAVRTRDPAVDKYSTPLLYLKGFHALQAYRIGHWLWNQGRRALAIFLQNQVSVTFQVDIHPAAKIGRGIMLDHATGIVVGETAVIENDVSILQSVTLGGTGKSGGDRHPKIREGVMIGAGAKILGNIEVGRGAKIGAGSVVLQPVPPHTTAAGVPARIVGKPDSDKPSMDMDQH
On to B7, for which the spec. act. under setting [1] is 0.328 μmol/min x mg. Moreover, the Ki is, setting by setting: under setting [1], 7.5 µM; under setting [2], 7.5 µM.

B8: cysE-Del248: carboxyterminal deletion of 25 amino acids, terminal Asp248 (protein, UniProt P0A9D4 1-248, looked up, fragment)
chain: MSCEELEIVWNNIKAEARTLADCEPMLASFYHATLLKHENLGSALSYMLANKLSSPIMPAIAIREVVEEAYAADPEMIASAACDIQAVRTRDPAVDKYSTPLLYLKGFHALQAYRIGHWLWNQGRRALAIFLQNQVSVTFQVDIHPAAKIGRGIMLDHATGIVVGETAVIENDVSILQSVTLGGTGKSGGDRHPKIREGVMIGAGAKILGNIEVGRGAKIGAGSVVLQPVPPHTTAAGVPARIVGKPD
Under setting [1], B8 returned a spec. act. of 0.270 μmol/min x mg and a Ki of 12.5 µM. Under setting [2], this molecule showed a Ki of 12.5 µM.

B9: cysE-Del258: carboxyterminal deletion of 15 amino acids, terminal Gln258 (protein, UniProt P0A9D4 1-258, looked up, fragment)
chain: MSCEELEIVWNNIKAEARTLADCEPMLASFYHATLLKHENLGSALSYMLANKLSSPIMPAIAIREVVEEAYAADPEMIASAACDIQAVRTRDPAVDKYSTPLLYLKGFHALQAYRIGHWLWNQGRRALAIFLQNQVSVTFQVDIHPAAKIGRGIMLDHATGIVVGETAVIENDVSILQSVTLGGTGKSGGDRHPKIREGVMIGAGAKILGNIEVGRGAKIGAGSVVLQPVPPHTTAAGVPARIVGKPDSDKPSMDMDQ
Regarding B9, under setting [1], the spec. act. came out at 0.256 μmol/min x mg and the Ki amounted to 5 µM. The Ki under setting [2] stood at 5 µM.
